Tests used:
[1] = target: LGTV NS2B/3pro_E117A (Langat virus) (UniProt P29837); assay: pull-down
[2] = target: LGTV NS2B/3pro_D19A_E117A (Langat virus) (UniProt P29837); assay: pull-down

## GFP-tagged TRAF6 (TRAF6-GFP) (from UniProt Q9Y4K3 1-522) (natural protein)
[1]
  percent decrease in pull down of TRAF6 relative to NS2B/3pro WT (densitometry): 56.1%
[2]
  percent decrease in pull down of TRAF6 relative to NS2B/3pro WT (densitometry): 58.6%
